# Data published in patent US20170152293.
# System: T1, KZ-sarcin recombinant protein
# T1 sequence: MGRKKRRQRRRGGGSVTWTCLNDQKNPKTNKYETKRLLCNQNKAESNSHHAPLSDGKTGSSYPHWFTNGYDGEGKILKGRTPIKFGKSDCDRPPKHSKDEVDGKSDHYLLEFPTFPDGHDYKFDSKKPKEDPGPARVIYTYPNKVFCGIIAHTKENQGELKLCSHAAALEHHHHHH
substance,measurement,value
"caspase-3 (Sigma Chem. Co, U.S.A.)","hydrolysis of KZ-sarcin by caspase-3, SDS-PAGE (room temperature, 15 minutes)",KZ-sarcin recombinant protein was hydrolyzed by caspase-3 into two fragments of 12 kb and 8.5 kb
